# According to the Immune Epitope Database (IEDB):
# How the values were obtained:
# HLA-A*24:02 = assay: IEDB peptide-MHC binding, purified MHC/competitive/radioactivity; filed as Kd, often an IC50 or EC50 that approximates it; ≥ and ≤ were set here for values at or beyond the usual limits of such assays
# HLA-A*26:01 = assay: as above
# HLA-A*29:02 = assay: as above
# HLA-A*30:02 = assay: as above
# HLA-A*23:01 = assay: as above
# HLA-A*01:01 [1] = assay: as above
# HLA-A*02:01 = assay: IEDB peptide-MHC binding, purified MHC/competitive/fluorescence; ≥ and ≤ were set here for values at or beyond the usual limits of such assays
# HLA-A*30:01 = assay: IEDB peptide-MHC binding, purified MHC/competitive/radioactivity; filed as Kd, often an IC50 or EC50 that approximates it; ≥ and ≤ were set here for values at or beyond the usual limits of such assays
# HLA-B*15:01 = assay: IEDB peptide-MHC binding, purified MHC/direct/fluorescence; filed as Kd, often an IC50 or EC50 that approximates it; ≥ and ≤ were set here for values at or beyond the usual limits of such assays; conditions: source organism: SARS-CoV1
# HLA-A*01:01 [2] = assay: as above; conditions: source organism: SARS-CoV1
# [3] = source organism: SARS coronavirus Tor2
# [4] = source organism: Dengue virus 2 Jamaica/1409/1983
# [5] = source organism: Mammarenavirus brazilense
# [6] = source organism: Dengue virus 3 Martinique/1243/1999
# [7] = source organism: Dengue virus 4 Philippines/H241/1956
# [8] = source organism: Lymphocytic choriomeningitis virus (strain Armstrong)
sequence,measurement,setting,value
DEEGNLLDSY,Kd,HLA-A*24:02; [3],≥ 70.3 µM
same,Kd,HLA-A*26:01; [3],≥ 71.6 µM
same,Kd,HLA-A*29:02; [3],7260 nM
same,Kd,HLA-A*30:02; [3],8980 nM
same,Kd,HLA-A*23:01; [3],≥ 58.1 µM
same,Kd,HLA-A*01:01 [1]; [3],≥ 92600 nM
YMDDRDINP,IC50,HLA-A*02:01; source organism: Vaccinia virus,27.1 µM
AGKRSLRPQP,Kd,HLA-A*30:01; [4],1900 nM
IFITDNVHTW,Kd,HLA-A*23:01; [4],0.0367 µM
FKIDNNTFV,IC50,HLA-A*02:01; source organism: Sudan ebolavirus,40.8 µM
YYSLLMPIL,Kd,HLA-A*24:02; [3],≥ 77.6 µM
same,Kd,HLA-A*26:01; [3],13.7 µM
same,Kd,HLA-A*29:02; [3],≥ 75000 nM
same,Kd,HLA-A*30:02; [3],≥ 81100 nM
same,Kd,HLA-A*23:01; [3],≥ 43.9 µM
same,Kd,HLA-A*01:01 [1]; [3],≥ 78100 nM
HSYGIDLKSY,Kd,HLA-A*24:02; [3],≥ 56.4 µM
same,Kd,HLA-A*26:01; [3],0.451 µM
same,Kd,HLA-A*29:02; [3],29.2 nM
same,Kd,HLA-A*30:02; [3],7.12 nM
same,Kd,HLA-A*23:01; [3],≥ 70 µM
same,Kd,HLA-A*01:01 [1]; [3],80.6 nM
LIGNEEYTDY,Kd,HLA-A*01:01 [1]; [4],1070 nM
NQDLNGNWY,Kd,HLA-A*24:02; [3],≥ 77.6 µM
same,Kd,HLA-A*26:01; [3],≥ 35 µM
same,Kd,HLA-A*29:02; [3],854 nM
same,Kd,HLA-A*30:02; [3],2710 nM
same,Kd,HLA-A*23:01; [3],≥ 77.8 µM
same,Kd,HLA-B*15:01,15.3 µM
same,Kd,HLA-A*01:01 [2],282 nM
GSDDIRRLV,Kd,HLA-A*24:02; [5],≥ 77.5 µM
same,Kd,HLA-A*26:01; [5],≥ 77.9 µM
same,Kd,HLA-A*29:02; [5],≥ 78900 nM
same,Kd,HLA-A*30:02; [5],≥ 76900 nM
same,Kd,HLA-A*23:01; [5],≥ 77.7 µM
same,Kd,HLA-A*01:01 [1]; [5],≥ 44500 nM
VTDTNKFAHY,Kd,HLA-A*24:02; source organism: Variola virus,≥ 70.3 µM
same,Kd,HLA-A*26:01; source organism: Variola virus,≥ 69.7 µM
same,Kd,HLA-A*29:02; source organism: Variola virus,≥ 25500 nM
same,Kd,HLA-A*30:02; source organism: Variola virus,1290 nM
same,Kd,HLA-A*23:01; source organism: Variola virus,≥ 50.2 µM
same,Kd,HLA-A*01:01 [1]; source organism: Variola virus,13.6 nM
GLDDQEKKI,IC50,HLA-A*02:01; source organism: Zaire ebolavirus,41.2 µM
VDTRTPRPMP,Kd,HLA-A*30:01; source organism: Dengue virus 3 Sri Lanka/1266/2000,415 nM
AWMVHRQWF,Kd,HLA-A*24:02; [6],0.0429 µM
same,Kd,HLA-A*23:01; [6],0.34 µM
ESWILRNPGF,Kd,HLA-A*26:01; [7],9.73 µM
same,Kd,HLA-A*30:01; [7],427 nM
EYHLLYQKT,Kd,HLA-A*26:01; [8],≥ 77.9 µM
same,Kd,HLA-A*30:02; [8],≥ 35000 nM
RTRVGTKHA,Kd,HLA-A*30:01; [4],0.02 nM
ALTLATGPIS,Kd,HLA-A*30:01; [4],220 nM
TSSGDATTAY,Kd,HLA-A*24:02; [3],≥ 70.3 µM
same,Kd,HLA-A*26:01; [3],0.646 µM
same,Kd,HLA-A*29:02; [3],98.8 nM
same,Kd,HLA-A*30:02; [3],606 nM
same,Kd,HLA-A*23:01; [3],≥ 70 µM
same,Kd,HLA-A*01:01 [1]; [3],63.8 nM
NYPLWSQSY,Kd,HLA-A*24:02; source organism: Homo sapiens,0.363 µM
RFLAIPPTA,Kd,HLA-A*30:01; source organism: Dengue virus 1 Brazil/97-11/1997,127 nM
LSRKTFDSEY,Kd,HLA-A*30:02; [4],627 nM
same,Kd,HLA-A*01:01 [1]; [4],1820 nM
AAMISLAKK,Kd,HLA-A*30:01; source organism: Vaccinia virus WR,151 nM
